B1: SFRS1 (parent)
chain: RDIDLKNRRGGPPFAFVEFEDPRD
B2: ALKBH7 (parent)
chain: SVICRSLPEGMGPGESGQPPPAC

Variants of: B1
Test: protein stability index of a GFP-peptide fusion (GPS, HEK-293T) (PSI 1-6); higher = more stable
Conditions: c terminus: a fixed tail appended
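Also: lentivirally expressed fusions sorted by FACS into six bins by GFP to DsRed ratio, PSI derived from sequencing read proportions per bin multiplied by bin number.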

Protein stability index of substitutions, site by site:
P13: E 4.83, R 4.23, I 3.34, T 4.34, A 4.62, K 4.02, H 4.65
D24: S 3.02, I 2.72, H 3.59, G 3.47, R 3.19, V 3.11, K 3.65, A 3.74, M 2.64, F 2.15, L 2.31, Y 2.5, W 1.33, Q 3.39, P 3.42, N 2.9
R9: M 4.04, W 4.23, P 4.16, K 3.69, E 4.18, L 4.27, V 4.21, S 4.12, Y 3.91, I 4.24, Q 4.11
A15: N 4.73, V 3.58, T 4.54, L 3.76, R 2.25, W 3.7, P 4.31, E 5.13
G11: M 2.61, E 4.47, A 4.11, K 3.78, H 3.52, C 3.77, I 3, Y 3.28, D 4.23, Q 3.47, T 3.87
R23: Q 4.15, C 3.67, W 3.62, M 3.79, H 4.17, I 3.67, F 3.37, V 3.45, G 3.84, N 4.24, Y 3.19, L 3.72, A 3.88
K6: A 4.18, C 3.91, Q 4.22, H 4.71, I 3.69, L 3.95, D 3.84, G 3.98, Y 3.78, F 3.61
D4: M 3.4, P 3.08, E 3.61, Y 2.92, V 2.85, H 3.25, S 3.83, Q 3.57, L 3.42
D2: A 2.59, Y 2.76, N 3.41, I 2.68, M 3.29, Q 3.25, L 2.62, W 2.1, E 4.06, K 3.12, G 3.06, C 3.1, H 3.19
G10: T 4.3, L 3.51, A 3.76, H 3.85, C 3.22, D 4.15, K 3.42, W 2.77, E 4.2, P 3.73, Q 4.18
P12: T 4.37, C 4.13, M 3.93, Y 3.98, F 3.5, D 5.06, A 4.12, G 4.39, S 4, V 3.9
E18: F 1.81, P 2.99, S 2, M 2.35, W 1.88, V 2.2, C 2.4, G 2.77, T 2.74, A 2.18, Q 2.53
D21: Q 3.54, F 2.65, N 3.38, A 3.1, T 3.72, W 2.95, C 2.73, G 2.55, L 2.51
E20: W 2.72, V 3.02, S 2.89, P 3.66, C 2.67, D 3.94, N 3.68, K 3.52, Q 2.91, G 3.14, T 3.3, F 2.67, R 2.91
P22: E 4.43, D 4.5, G 4.03, K 4.09, N 4.15, S 3.93, M 3.76, H 3.63
F14: V 4.55, N 4.58, E 5.48, C 4.91, S 5.3, Y 4.28, A 5.04, K 4.51, R 4.66, P 5.05, M 4.26, W 3.77, H 5.01, D 4.86
R8: N 4.27, F 3.75, V 4.17, W 3.71, S 4.32, C 4.23, H 3.71, M 4.12, L 3.77
I3: H 3.92, P 3.98, Q 4.1, K 3.77, S 3.45, D 4.57, R 3.6, G 4.15, W 3.95, V 3.79, E 4.71, L 3.81
R1: V 3.97, Q 3.96, F 3.19, A 4.38, S 3.84, W 2.69, G 4.01, E 4.36, H 3.89, I 3.1, Y 3.65
V17: R 4.33, D 4.77, Y 4.42, P 4.63, I 3.97, E 4.95, G 4.43, A 4.35, L 4.13
F19: T 3.47, L 4.22, V 3.03, E 4.77, S 3.19, D 3.69, W 3.39, Y 4.11, H 3.95, R 3.38, P 3.85
L5: V 3.94, E 4.49, K 3.81, Y 3.3, H 3.59, A 4.09, D 4.49, R 3.35, I 3.67, M 3.93, F 3.35
N7: I 3.63, K 3.41, M 3.26, E 4.26, S 3.5, W 3.28, H 3.61, L 3.39, A 3.61, G 4.16, T 3.73, F 2.76, Q 3.56
F16: D 5.04, H 4.77, N 4.91, K 4.89, C 4.45, E 5.2, Q 5, Y 4.26, W 3.97, P 5.26, M 4.88, I 4.36, S 4.7

Variants of: B2
Test: as above
Conditions: c terminus: native

Protein stability index: each site, then its substitutions
P19: T 1.95, Y 2.33, S 4.04, V 4.2, W 2.26
C23: I 5.17, Q 3.8, H 5.02, K 4.35, V 4.54, L 4.69, W 4.15, M 5.48, S 2.99, F 4.57, T 4.52, E 4.31, N 5.35, R 4.76, Y 4.45, D 4.63
A22: C 4.31, M 4.74, I 3.19, W 4.77, K 5.64, N 5.43, V 3.77, L 4.3, D 5.53, G 5.1, Q 4.92, F 5.01, H 4.75, R 5, E 4.63, S 3.69, Y 4.68, T 4.77
P21: V 3.21, T 2.51, F 2.69, A 1.68, H 3.44, N 4.05, L 1.28, C 2.17, Q 3.36, M 1.18, S 4.08, D 2.63, I 2.5, Y 2.59, G 4.95, K 3.92, E 2.47
P20: M 1.79, Q 1.64, D 4.12, S 3.75, G 4.91, F 2.45, K 4.38, H 3.78, T 2.08, C 2.42, R 4.09, E 3.55, N 4.14, Y 3.31, I 3.72

— the supplement of paper PMC10567573
